{"source": "paper PMC6521699", "key": {"[1]": {"molecular_target": "mouse IL-2 receptor βƔc heterodimer (mouse)", "experiment": "SPR"}, "[2]": {"molecular_target": "mouse IL-2Rβ ectodomain, biotinylated (mouse)", "experiment": "SPR"}, "[3]": {"molecular_target": "human IL-2 receptor βƔc heterodimer (human) (UniProt P14784)", "experiment": "SPR"}, "[4]": {"molecular_target": "mouse IL-2 receptor βƔc heterodimer (mouse)"}, "[5]": {"molecular_target": "IL-2Rβγc (species not stated, Figure E3d) (not stated (human and mouse receptors made)) (UniProt P14784)", "experiment": "BLI"}, "[6]": {"molecular_target": "human IL-2 receptor βƔc heterodimer (human) (UniProt P14784)"}, "[7]": {"molecular_target": "human IL-2Rβ, biotinylated (human) (UniProt P14784)", "experiment": "SPR"}}, "data": [{"molecule": "human interleukin-2 (from UniProt P60568 21-153) (ligand)", "values": [{"measurement": "Kd", "setting": "[1]", "result": 492, "unit": "nM"}, {"measurement": "Kd", "setting": "[2]", "result": 8110, "unit": "nM"}]}, {"molecule": "Super-2 / Superkine (from UniProt P60568 21-153) (ligand)", "values": [{"measurement": "Kd", "setting": "[1]", "result": 312, "unit": "nM"}, {"measurement": "Kd", "setting": "[3]", "result": 301, "unit": "nM"}, {"measurement": "Kd", "setting": "[2]", "result": 214, "unit": "nM"}]}, {"molecule": "Neoleukin-2/15 (designed binder)", "values": [{"measurement": "EC50 of STAT5 phosphorylation in IL-2Rα- mouse primary T cells", "setting": "[4]", "result": 0.13, "unit": "nM"}, {"measurement": "Kd", "setting": "[5]", "result": 6.9, "unit": "nM"}, {"measurement": "EC50 of STAT5 phosphorylation in IL-2Rα- (CD25-) human YT-1 NK cells", "setting": "[6]", "result": 0.05, "unit": "nM"}, {"measurement": "Kd", "setting": "[1]", "result": 38.4, "unit": "nM"}, {"measurement": "Kd", "setting": "[7]", "result": 11.2, "unit": "nM"}, {"measurement": "Kd", "setting": "[3]", "result": 18.8, "unit": "nM"}, {"measurement": "Kd", "setting": "[2]", "result": 16.1, "unit": "nM"}]}, {"molecule": "mouse interleukin-2 (ligand) APTSSSTSSSTAEAQQQQQQQQQQQQHLEQLLMDLQELLSRMENYRNLKLPRMLTFKFYLPKQATELKDLQCLEDELGPLRHVLDLTQSKSFQLEDAENFISNIRVTVVKLKGSDNTFECQFDDESATVVDFLRRWIAFCQSIISTSPQ", "values": [{"measurement": "Kd", "setting": "[2]", "result": 1500, "unit": "nM"}]}]}
